From the Immune Epitope Database (IEDB)

How the values were obtained:
HLA-A*03:01 [1] = test: IEDB peptide-MHC binding, purified MHC/direct/fluorescence; filed as Kd, often an IC50 or EC50 that approximates it; ≥ and ≤ were set here for values at or beyond the usual limits of such assays
HLA-B*58:01 = test: as above
HLA-A*24:03 = test: as above
HLA-A*02:11 = test: as above
HLA-A*02:16 = test: as above
HLA-A*02:12 = test: as above
HLA-A*68:02 = test: as above
HLA-A*02:03 = test: as above
HLA-A*02:19 = test: as above
HLA-A*29:02 = test: as above
HLA-A*26:01 [2] = test: IEDB peptide-MHC binding, purified MHC/competitive/fluorescence; filed as Kd, often an IC50 or EC50 that approximates it; ≥ and ≤ were set here for values at or beyond the usual limits of such assays
HLA-B*27:03 = test: as above
HLA-B*15:01 [3] = test: as above
HLA-A*02:01 [4] = test: as above
HLA-B*46:01 = test: as above
HLA-B*39:01 = test: as above
HLA-A*69:01 [5] = test: as above
HLA-B*18:01 = test: as above
HLA-A*23:01 = test: IEDB peptide-MHC binding, purified MHC/direct/fluorescence; filed as Kd, often an IC50 or EC50 that approximates it; ≥ and ≤ were set here for values at or beyond the usual limits of such assays
HLA-B*51:01 = test: IEDB peptide-MHC binding, purified MHC/competitive/fluorescence; filed as Kd, often an IC50 or EC50 that approximates it; ≥ and ≤ were set here for values at or beyond the usual limits of such assays
HLA-B*15:17 = test: as above
HLA-A*31:01 [6] = test: as above; conditions: source organism: Zaire ebolavirus
HLA-B*57:01 = test: as above
HLA-B*07:02 = test: IEDB peptide-MHC binding, purified MHC/direct/fluorescence; filed as Kd, often an IC50 or EC50 that approximates it; ≥ and ≤ were set here for values at or beyond the usual limits of such assays
HLA-A*11:01 [7] = test: as above; conditions: source organism: Escherichia coli O157:H7
HLA-A*01:01 = test: as above; conditions: source organism: Escherichia coli O157:H7
HLA-A*31:01 [8] = test: as above; conditions: source organism: Escherichia coli O157:H7
HLA-B*27:05 = test: as above
HLA-A*30:01 = test: as above; conditions: source organism: Escherichia coli O157:H7
HLA-A*26:01 [9] = test: as above; conditions: source organism: Escherichia coli O157:H7
HLA-B*08:01 = test: as above; conditions: source organism: Escherichia coli O157:H7
HLA-B*40:01 = test: as above
HLA-B*15:01 [10] = test: as above; conditions: source organism: Escherichia coli O157:H7
HLA-A*02:01 [11] = test: as above; conditions: source organism: Escherichia coli O157:H7
HLA-A*69:01 [12] = test: as above; conditions: source organism: Escherichia coli O157:H7
HLA-B*44:02 = test: as above; conditions: source organism: Escherichia coli O157:H7
HLA-A*03:01 [13] = test: IEDB peptide-MHC binding, purified MHC/competitive/fluorescence; ≥ and ≤ were set here for values at or beyond the usual limits of such assays; conditions: source organism: Sudan ebolavirus
HLA-A*11:01 [14] = test: as above; conditions: source organism: Sudan ebolavirus
[15] = source organism: Orthohantavirus andesense
[16] = source organism: Zaire ebolavirus
[17] = source organism: Orthohantavirus hantanense
[18] = source organism: Seoul virus 80-39
[19] = source organism: Escherichia coli O157:H7
[20] = source organism: Limestone Canyon virus
[21] = source organism: Orthohantavirus sinnombreense

Sequence VSANVKGNW has a Kd (HLA-A*03:01 [1]; [15]) of no less than 20 µM, a Kd (HLA-B*58:01; [15]) of 0.0023 µM and a Kd (HLA-A*24:03; [15]) of no less than 20 µM. For the same sequence, the Kd (HLA-A*02:11; [15]) was no less than 20 µM, the Kd (HLA-A*02:16; [15]) was no less than 20 µM and the Kd (HLA-A*02:12; [15]) was no less than 20 µM. It also gave a Kd (HLA-A*68:02; [15]) of no less than 20 µM, a Kd (HLA-A*02:03; [15]) of no less than 20 µM and a Kd (HLA-A*02:19; [15]) of no less than 20 µM. The Kd (HLA-A*29:02; [15]) was no less than 20 µM, the Kd (HLA-A*26:01 [2]; [15]) was no less than 20 µM and the Kd (HLA-B*27:03; [15]) was no less than 20 µM. It also gave a Kd (HLA-B*15:01 [3]; [15]) of no less than 20 µM, a Kd (HLA-A*02:01 [4]; [15]) of no less than 20 µM and a Kd (HLA-B*46:01; [15]) of no less than 20 µM. For the same sequence, the Kd (HLA-B*39:01; [15]) was no less than 20 µM, the Kd (HLA-A*69:01 [5]; [15]) was no less than 20 µM and the Kd (HLA-B*18:01; [15]) was no less than 20 µM.
With GIVSSMHYK the Kd (HLA-A*03:01 [1]; source organism: Sudan ebolavirus - Maleo (1979)) was 1.38 µM, the Kd (HLA-A*23:01; [16]) was no less than 20 µM and the Kd (HLA-A*24:03; [16]) was no less than 20 µM. The Kd (HLA-A*02:11; [16]) was no less than 20 µM, the Kd (HLA-A*02:16; [16]) was no less than 20 µM and the Kd (HLA-A*02:12; [16]) was no less than 20 µM. The Kd (HLA-A*68:02; [16]) was no less than 20 µM, the Kd (HLA-A*02:03; [16]) was no less than 20 µM and the Kd (HLA-A*02:19; [16]) was no less than 20 µM. For the same sequence, the Kd (HLA-A*29:02; [16]) was no less than 20 µM, the Kd (HLA-B*51:01; [16]) was no less than 20 µM and the Kd (HLA-B*15:17; [16]) was no less than 20 µM. It also gave a Kd (HLA-A*31:01 [6]) of no less than 20 µM, a Kd (HLA-A*26:01 [2]; [16]) of no less than 20 µM and a Kd (HLA-B*57:01; [16]) of no less than 20 µM. For the same sequence, the Kd (HLA-B*27:03; [16]) was no less than 20 µM, the Kd (HLA-B*15:01 [3]; [16]) was no less than 20 µM and the Kd (HLA-A*02:01 [4]; [16]) was no less than 20 µM. The Kd (HLA-B*46:01; [16]) was no less than 20 µM, the Kd (HLA-B*39:01; [16]) was no less than 20 µM and the Kd (HLA-A*69:01 [5]; [16]) was no less than 20 µM. For the same sequence, the Kd (HLA-B*18:01; [16]) was no less than 20 µM.
LVRDITESL showed a Kd (HLA-A*03:01 [1]; [17]) of no less than 20 µM, a Kd (HLA-B*07:02; [18]) of 0.0392 µM and a Kd (HLA-A*23:01; [17]) of no less than 20 µM. The Kd (HLA-A*24:03; [17]) was no less than 20 µM, the Kd (HLA-A*02:16; [17]) was no less than 20 µM and the Kd (HLA-A*02:12; [17]) was no less than 20 µM. The Kd (HLA-A*02:03; [17]) was no less than 20 µM, the Kd (HLA-A*29:02; [17]) was no less than 20 µM and the Kd (HLA-B*51:01; [18]) was no less than 20 µM. The Kd (HLA-A*26:01 [2]; [18]) was no less than 20 µM, the Kd (HLA-B*57:01; [18]) was no less than 20 µM and the Kd (HLA-B*27:03; [18]) was no less than 20 µM. It also gave a Kd (HLA-B*39:01; [18]) of no less than 20 µM, a Kd (HLA-A*69:01 [5]; [18]) of no less than 20 µM and a Kd (HLA-B*18:01; [18]) of no less than 20 µM.
GITGGHIPK was tested, and the Kd (HLA-A*03:01 [1]; [19]) was 0.392 µM, the Kd (HLA-A*11:01 [7]) was 0.101 µM and the Kd (HLA-B*07:02; [19]) was no less than 20 µM. The Kd (HLA-A*01:01) was no less than 20 µM, the Kd (HLA-A*31:01 [8]) was no less than 20 µM and the Kd (HLA-B*27:05; [19]) was no less than 20 µM. The Kd (HLA-B*58:01; [19]) was no less than 20 µM, the Kd (HLA-A*30:01) was 0.0722 µM and the Kd (HLA-A*26:01 [9]) was no less than 20 µM. For the same sequence, the Kd (HLA-A*24:03; [19]) was no less than 20 µM, the Kd (HLA-B*08:01) was no less than 20 µM and the Kd (HLA-B*40:01; [19]) was no less than 20 µM. The Kd (HLA-B*15:01 [10]) was no less than 20 µM, the Kd (HLA-A*02:01 [11]) was no less than 20 µM and the Kd (HLA-A*69:01 [12]) was no less than 20 µM. It also gave a Kd (HLA-B*44:02) of no less than 20 µM.
AENCYNLEI gave a Kd (HLA-A*03:01 [1]; [16]) of no less than 20 µM, a Kd (HLA-A*24:03; [16]) of no less than 20 µM and a Kd (HLA-A*02:11; [16]) of no less than 20 µM. For the same sequence, the Kd (HLA-B*40:01; [16]) was 0.0822 µM, the Kd (HLA-A*02:16; [16]) was no less than 20 µM and the Kd (HLA-A*02:12; [16]) was no less than 20 µM. It also gave a Kd (HLA-A*68:02; [16]) of no less than 20 µM, a Kd (HLA-A*02:03; [16]) of no less than 20 µM and a Kd (HLA-A*02:19; [16]) of no less than 20 µM. The Kd (HLA-A*29:02; [16]) was no less than 20 µM, the Kd (HLA-B*51:01; [16]) was no less than 20 µM and the Kd (HLA-B*15:17; [16]) was no less than 20 µM. The Kd (HLA-A*26:01 [2]; [16]) was no less than 20 µM, the Kd (HLA-B*57:01; [16]) was no less than 20 µM and the Kd (HLA-B*27:03; [16]) was no less than 20 µM. The Kd (HLA-B*15:01 [3]; [16]) was no less than 20 µM, the Kd (HLA-A*02:01 [4]; [16]) was no less than 20 µM and the Kd (HLA-B*46:01; [16]) was no less than 20 µM. The Kd (HLA-B*39:01; [16]) was no less than 20 µM, the Kd (HLA-A*69:01 [5]; [16]) was no less than 20 µM and the Kd (HLA-B*18:01; [16]) was no less than 20 µM.
With DRLASTVIY the IC50 (HLA-A*03:01 [13]) was no less than 257 µM, the IC50 (HLA-A*11:01 [14]) was no less than 120 µM and the Kd (HLA-A*03:01 [1]; [16]) was no less than 20 µM. The Kd (HLA-A*23:01; [16]) was no less than 20 µM, the Kd (HLA-B*27:05; [16]) was 8.77 µM and the Kd (HLA-A*24:03; [16]) was no less than 20 µM. The Kd (HLA-A*02:11; [16]) was no less than 20 µM, the Kd (HLA-A*02:16; [16]) was no less than 20 µM and the Kd (HLA-A*02:12; [16]) was no less than 20 µM. It also gave a Kd (HLA-A*02:03; [16]) of no less than 20 µM, a Kd (HLA-A*02:19; [16]) of no less than 20 µM and a Kd (HLA-A*29:02; [16]) of no less than 20 µM. For the same sequence, the Kd (HLA-B*51:01; [16]) was no less than 20 µM, the Kd (HLA-B*15:17; [16]) was no less than 20 µM and the Kd (HLA-A*26:01 [2]; [16]) was no less than 20 µM. The Kd (HLA-B*57:01; [16]) was no less than 20 µM, the Kd (HLA-B*27:03; [16]) was no less than 20 µM and the Kd (HLA-B*15:01 [3]; [16]) was no less than 20 µM. For the same sequence, the Kd (HLA-A*02:01 [4]; [16]) was no less than 20 µM, the Kd (HLA-B*46:01; [16]) was no less than 20 µM and the Kd (HLA-B*39:01; [16]) was no less than 20 µM. The Kd (HLA-A*69:01 [5]; [16]) was no less than 20 µM and the Kd (HLA-B*18:01; [16]) was no less than 20 µM.
LVTARQKLK was tested, and the Kd (HLA-A*03:01 [1]; [15]) was 9 µM, the Kd (HLA-A*23:01; [20]) was no less than 20 µM and the Kd (HLA-A*24:03; [20]) was no less than 20 µM. It also gave a Kd (HLA-A*02:11; [20]) of no less than 20 µM, a Kd (HLA-A*02:16; [20]) of no less than 20 µM and a Kd (HLA-A*02:12; [20]) of no less than 20 µM. The Kd (HLA-A*68:02; [20]) was no less than 20 µM, the Kd (HLA-A*02:03; [20]) was no less than 20 µM and the Kd (HLA-A*02:19; [20]) was no less than 20 µM. It also gave a Kd (HLA-A*29:02; [20]) of no less than 20 µM, a Kd (HLA-B*51:01; [21]) of no less than 20 µM and a Kd (HLA-B*15:17; [21]) of no less than 20 µM. The Kd (HLA-A*26:01 [2]; [21]) was no less than 20 µM, the Kd (HLA-B*57:01; [21]) was no less than 20 µM and the Kd (HLA-B*27:03; [21]) was no less than 20 µM. The Kd (HLA-B*15:01 [3]; [21]) was no less than 20 µM, the Kd (HLA-A*02:01 [4]; [21]) was no less than 20 µM and the Kd (HLA-B*46:01; [21]) was no less than 20 µM. The Kd (HLA-B*39:01; [21]) was no less than 20 µM, the Kd (HLA-A*69:01 [5]; [21]) was no less than 20 µM and the Kd (HLA-B*18:01; [21]) was no less than 20 µM.
